This series deals with the molecule itself. In words: negative-stain transmission electron microscopy; protein incubated with unilamellar liposomes (1:1 POPC/chol), stained with 1% w/v uranyl acetate on a copper grid; membrane-bound oligomeric structures visualised.

Where a chain is given by its changes, count along the chain named. Names may count otherwise.

B1: pneumolysin point mutant D205R (natural protein, Streptococcus pneumoniae, UniProt Q04IN8 1-471, looked up)
chain: MANKAVNDFILAMNYDKKKLLTHQGESIENRFIKEGNQLPDEFVVIERKKRSLSTNTSDISVTATNDSRLYPGALLVVDETLLENNPTLLAVDRAPMTYSIDLPGLASSDSFLQVEDPSNSSVRGAVNDLLAKWHQDYGQVNNVPARMQYEKITAHSMEQLKVKFGSDFEKTGNSLDIDFNSVHSGEKQIQIVNFKQIYYTVSVRAVKNPGDVFQDTVTVEDLKQRGISAERPLVYISSVAYGRQVYLKLETTSKSDEVEAAFEALIKGVKVAPQTEWKQILDNTEVKAVILGGDPSSGARVVTGKVDMVEDLIQEGSRFTADHPGLPISYTTSFLRDNVVATFQNSTDYVETKVTAYRNGDLLLDHSGAYVAQYYITWDELSYDHQGKEVLTPKAWDRNGQDLTAHFTTSIPLKGNVRNLSVKIRECTGLAWEWWRTVYEKTDLPLVRKRTISIWGTTLYPQVEDKVEND
notes: pneumolysin (PLY), Streptococcus pneumoniae, with D205R in domain 1; also called PLY D205R; source: purified
On to B1, for which the binding result is “binds”.

B2: pneumolysin point mutant T304R (natural protein, Streptococcus pneumoniae, UniProt Q04IN8 1-471, looked up)
chain: B1 chain with R205D, T304R
notes: pneumolysin (PLY), Streptococcus pneumoniae, with T304R in domain 3; also called PLY T304R; source: purified
As for B2, the binding result is given as “binds”.
